{"source": "paper PMC10709394", "about": "“Structural basis for nucleosome binding and catalysis by the yeast Rpd3S/HDAC holoenzyme” (Cell Research, 2023)", "binders": {"B1": {"name": "Eaf3 (natural protein, yeast, UniProt Q12432 1-401, looked up)", "chain": "MVDLEQEFALGGRCLAFHGPLMYEAKILKIWDPSSKMYTSIPNDKPGGSSQATKEIKPQKLGEDESIPEEIINGKCFFIHYQGWKSSWDEWVGYDRIRAYNEENIAMKKRLANEAKEAKKSLLEQQKKKKLSTSLGGPSNGGKRKGDSRSNASISKSTSQSFLTSSVSGRKSGRSSANSLHPGSSLRSSSDQNGNDDRRRSSSLSPNMLHHIAGYPTPKISLQIPIKLKSVLVDDWEYVTKDKKICRLPADVTVEMVLNKYEHEVSQELESPGSQSQLSEYCAGLKLYFDKCLGNMLLYRLERLQYDELLKKSSKDQKPLVPIRIYGAIHLLRLISVLPELISSTTMDLQSCQLLIKQTEDFLVWLLMHVDEYFNDKDPNRSDDALYVNTSSQYEGVALGM", "notes": "Two copies stand in the holoenzyme; also called Eaf3 I; Eaf3 II"}, "B2": {"name": "Rpd3 (enzyme, yeast, UniProt P32561 1-433, looked up)", "chain": "MVYEATPFDPITVKPSDKRRVAYFYDADVGNYAYGAGHPMKPHRIRMAHSLIMNYGLYKKMEIYRAKPATKQEMCQFHTDEYIDFLSRVTPDNLEMFKRESVKFNVGDDCPVFDGLYEYCSISGGGSMEGAARLNRGKCDVAVNYAGGLHHAKKSEASGFCYLNDIVLGIIELLRYHPRVLYIDIDVHHGDGVEEAFYTTDRVMTCSFHKYGEFFPGTGELRDIGVGAGKNYAVNVPLRDGIDDATYRSVFEPVIKKIMEWYQPSAVVLQCGGDSLSGDRLGCFNLSMEGHANCVNYVKSFGIPMMVVGGGGYTMRNVARTWCFETGLLNNVVLDKDLPYNEYYEYYGPDYKLSVRPSNMFNVNTPEYLDKVMTNIFANLENTKYAPSVQLNHTPRDAEDLGDVEEDSAEAKDTKGGSQYARDLHVEHDNEFY", "notes": "Rpd3, yeast class I histone deacetylase, endogenous catalytic subunit of Rpd3S; Subunit of the endogenous holoenzyme; also called Rpd3/HDAC"}, "B3": {"name": "Rco1 (natural protein, yeast, UniProt Q04779 1-684, looked up)", "chain": "MDTSKKDTTRSPSHSNSSSPSSSSLSSSSSKEKKRPKRLSSQNVNYDLKRRKIITSEGIERSFKNEHSNLAVEDNIPEEEPKELLEKDSKGNIIKLNEPSTISEDSKVSVTGLPLNKGPSEKIKRESLWNYRKNLGGQSNNSEMTLVPSKRFTQVPKNFQDLNRNDLKTFLTENMTEESNIRSTIGWNGDIINRTRDREPESDRDNKKLSNIRTKIILSTNATYDSKSKLFGQNSIKSTSNASEKIFRDKNNSTIDFENEDFCSACNQSGSFLCCDTCPKSFHFLCLDPPIDPNNLPKGDWHCNECKFKIFINNSMATLKKIESNFIKQNNNVKIFAKLLFNIDSHNPKQFQLPNYIKETFPAVKTGSRGQYSDENDKIPLTDRQLFNTSYGQSITKLDSYNPDTHIDSNSGKFLICYKCNQTRLGSWSHPENSRLIMTCDYCQTPWHLDCVPRASFKNLGSKWKCPLHSPTKVYKKIHHCQEDNSVNYKVWKKQRLINKKNQLYYEPLQKIGYQNNGNIQIIPTTSHTDYDFNQDFKITQIDENSIKYDFFDKIYKSKMVQKRKLFQFQESLIDKLVSNGSQNGNSEDNMVKDIASLIYFQVSNNDKSSNNKSASKSNNLRKLWDLKELTNVVVPNELDSIQFNDFSSDEIKHLLYLKKIIESKPKEELLKFLNIENPENQSE", "notes": "Two copies stand in the holoenzyme; also called Rco1 I; Rco1 II"}}, "test_in_all_cases": "cryo-EM structure; endogenous Rpd3S incubated with an excess of H3Kc36me3 mononucleosome (70-bp DNA link at one end), fractionated by gel filtration, concentrated, no cross-linking; 3.7 Å", "key": {"[1]": {"target": "B2", "conditions": "both partners purified"}, "[2]": {"target": "T1, Sin3 (yeast, UniProt P22579 1-1536)", "T1 construct": "Sin3, yeast, endogenous scaffold subunit of Rpd3S", "T1 sequence (P22579 whole entry)": "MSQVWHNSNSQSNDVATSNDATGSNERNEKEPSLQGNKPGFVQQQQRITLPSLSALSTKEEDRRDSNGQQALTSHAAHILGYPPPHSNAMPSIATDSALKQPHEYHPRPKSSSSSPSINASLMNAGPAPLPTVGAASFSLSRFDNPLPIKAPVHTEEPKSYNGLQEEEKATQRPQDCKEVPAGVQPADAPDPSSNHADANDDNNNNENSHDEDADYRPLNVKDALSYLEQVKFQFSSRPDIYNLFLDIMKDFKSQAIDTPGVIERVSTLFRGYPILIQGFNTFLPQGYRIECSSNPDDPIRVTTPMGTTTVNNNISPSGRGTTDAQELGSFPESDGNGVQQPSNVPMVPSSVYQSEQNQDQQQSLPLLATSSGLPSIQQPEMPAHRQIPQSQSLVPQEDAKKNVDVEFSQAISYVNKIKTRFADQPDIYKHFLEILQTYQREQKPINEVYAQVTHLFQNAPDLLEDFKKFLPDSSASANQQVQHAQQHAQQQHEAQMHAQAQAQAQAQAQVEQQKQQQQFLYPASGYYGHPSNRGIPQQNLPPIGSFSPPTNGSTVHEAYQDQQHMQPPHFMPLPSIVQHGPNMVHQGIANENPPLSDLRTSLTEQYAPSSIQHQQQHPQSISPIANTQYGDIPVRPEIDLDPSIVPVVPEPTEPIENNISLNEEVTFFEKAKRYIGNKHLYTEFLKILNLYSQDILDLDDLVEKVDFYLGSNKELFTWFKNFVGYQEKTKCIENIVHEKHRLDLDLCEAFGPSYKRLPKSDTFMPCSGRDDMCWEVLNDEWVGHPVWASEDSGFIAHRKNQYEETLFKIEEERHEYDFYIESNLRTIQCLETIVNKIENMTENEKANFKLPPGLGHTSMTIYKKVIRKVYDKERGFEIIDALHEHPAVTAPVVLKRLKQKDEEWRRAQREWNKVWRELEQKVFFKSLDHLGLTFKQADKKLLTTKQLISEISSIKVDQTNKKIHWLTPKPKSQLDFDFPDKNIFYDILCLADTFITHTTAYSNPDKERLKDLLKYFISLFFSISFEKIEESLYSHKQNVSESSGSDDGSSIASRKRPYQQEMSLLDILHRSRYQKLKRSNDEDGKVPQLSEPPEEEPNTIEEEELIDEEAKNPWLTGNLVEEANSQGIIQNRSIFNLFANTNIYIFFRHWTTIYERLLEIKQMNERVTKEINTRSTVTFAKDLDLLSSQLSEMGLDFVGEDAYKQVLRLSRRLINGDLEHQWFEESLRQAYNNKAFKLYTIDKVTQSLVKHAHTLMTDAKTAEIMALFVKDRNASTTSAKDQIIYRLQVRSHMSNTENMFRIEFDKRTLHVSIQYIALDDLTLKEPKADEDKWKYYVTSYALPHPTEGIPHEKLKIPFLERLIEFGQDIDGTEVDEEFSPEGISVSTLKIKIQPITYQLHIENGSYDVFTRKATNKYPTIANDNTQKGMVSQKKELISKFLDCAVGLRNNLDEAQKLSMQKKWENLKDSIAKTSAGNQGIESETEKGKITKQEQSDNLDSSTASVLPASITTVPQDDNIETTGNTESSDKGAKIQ", "conditions": "both partners purified"}, "[3]": {"target": "B3", "conditions": "both partners purified"}, "[4]": {"target": "the molecule itself"}}}
{"binder": "B1", "values": [{"measurement": "binding result", "setting": "[1]", "value": "binds"}, {"measurement": "binding result", "setting": "[2]", "value": "binds"}, {"measurement": "binding result", "setting": "[3]", "value": "binds"}]}
{"binder": "B2", "values": [{"measurement": "binding result", "setting": "[2]", "value": "binds"}, {"measurement": "binding result", "setting": "[3]", "value": "binds"}]}
{"binder": "B3", "values": [{"measurement": "binding result", "setting": "[2]", "value": "binds"}, {"measurement": "stoichiometry N", "setting": "[4]", "value": 2}]}
